Measured values from patent US8158851B2, “Transgenic high tryptophan plants” (Monsanto Technology LLC, priority 2002, dated 2012).
Changes are numbered by the printed parent chain. Read-outs that look alike come from different tables or passages of the source.

B1: S51C (protein)
chain: MVTIIQDDGAETYETKGGIQVSRKRRPTDYANAIDNYIEKLDSHRGAVFSCNYEYPGRYTRWDTAIVDPPLGISCFGRKMWIEAYNGRGEVLLDFITEKLKATPDLTLGASSTRRLDLTVNEPDRVFTEEERSKIPTVFTALRAIVDLFYSSADSAIGLFGAFGYDLAFQFDAIKLSLARPEDQRDMVLFLPDEILVVDHYSAKAWIDRYDFEKDGMTTDGKSSDITPDPFKTTDTIPPKGDHRPGEYSELVVKAKESFRRGDLFEVVPGQKFMERCESNPSAISRRLKAINPSPYSFFINLGDQEYLVGASPEMFVRVSGRRIETCPISGTIKRGDDPIADSEQILKLLNSKKDESELTMCSDVDRNDKSRVCEPGSVKVIGRRQIEMYSRLIHTVDHIEGRLRDDMDAFDGFLSHAWAVTVTGAPKLWAMRFIEGHEKSPRAWYGGAIGMVGFNGDMNTGLTLRTIRIKDGIAEVRAGATLLNDSNPQEEEAETELKASAMISAIRDAKGTNSAATKRDAAKVGTGVKILLVDHEDSFVHTLANYFRQTGATVSTVRSPVAADVFDRFQPDLVVLSPGPGSPTDFDCKATIKAARARDLPIFGVCLGLQALAEAYGGELRQLAVPMHGKPSRIRVLEPGLVFSGLGKEVTVGRYHSIFADPATLPRDFIITAESEDGTIMGIEHAKEPVAAVQFHPESIMTLGQDAGMRMIENVVVHLTRKAKTKAA
modifications: An A. tumefaciens mutant.
B2: F298A (protein)
chain: B1 chain with C51S, F298A
modifications: An A. tumefaciens mutant.
B3: V48Y (protein)
chain: B1 chain with V48Y, C51S
modifications: An A. tumefaciens mutant.

How the values were obtained:
[1] = test system: soy seed; assay: Free amino acid analysis of soy seed (tryptophan content); type: in vivo, Glycine max; details: R1 soy seeds expressing the mutant protein
Experimental: Amino Acid Extraction: About 50 mg of crushed soy seed (5 mg of Arabidopsis) material was placed in each centrifuge vial. One milliliter of 5% trichloroacetic acid was added to each sample (100 μl for Arabidopsis). The samples were vortexed, and allowed to sit, with agitation, at room temperature for 15 min. They were then microcentrifuged for 15 min at 14000 rpm. Some of the supernatant was then removed, placed in a HPLC vial and sealed. Samples were kept at 4° C. in the analysis queue.
Amino Acid Analysis: The reagents utilized for amino acid analysis included the OPA reagent (o-phthalaldehyde and 3-mercaptopropionic acid in borate buffer (Hewlett-Packard, PN 5061-3335)) where the borate buffer (0.4 N in water, pH 10.2). The analysis was performed using the Agilent 1100 series HPLC system as described in the Agilent Technical Publication, “Amino Acid Analysis Using Zorbax Eclipse-AAA Columns and the Agilent 1100 HPLC”, Mar. 17, 2000. First, 0.5 μl of the sample was derivatized with 2.5 μl of OPA reagent in 10 μl of borate buffer. Second, the derivative is injected onto a Eclipse XDB-C18 5 μm, 4.6×150 mm column using a flow rate of 1.2 ml/min. Amino acid concentrations were measured using fluorescence: excitation at 340 nm, emission at 450 nm. Elution was with a gradient of HPLC Buffers A and B according to Table A, where HPLC Buffer A was 40 mM Na2HPO4, pH=7.8 and HPLC Buffer B was 9:9:2::Methanol:Acetonitrile:Water.
Amino acid standards were prepared from the dry chemicals, using all amino acids of interest. Proline analysis required an additional derivatization step with 9-fluorenylmethyl-chloroformate (FMOC). Amino acid standards were also sometimes purchased in concentrations ranging from 0 to 100 μg/ml. Samples were reported in μg/g of seed powder.
Mature R1 seed is produced and analyzed for free amino acid content using fluorescence detection as described in Agilent Technologies Technical Bulletin REV14. Five seeds are chosen for single seed analysis from each event. […] The highest levels of tryptophan have a negative impact on germination.

[2] = test system: Agrobacterium tumefaciens AS; assay: Anthranilate synthase enzyme assay and kinetic analysis of purified enzymes; type: biochemical; details: for Km: 25° C.
Experimental: Agrobacterium tumefaciens AS wild type and mutant enzymes were expressed in E. coli as described in Example 1. The purification of all the Agrobacterium tumefaciens AS enzymes, including wild type and mutants thereof, was performed at 4° C. The cells (approximate wet weight of 1 g) were suspended in 20 ml of purification buffer (50 mM potassium phosphate, pH 7.3, 10 mM MgCl2, 10 mM 2-mercaptoethanol, 10% glycerol) and lysed by ultrasonication (Branson sonifier Cell Disruptor, W185). Supernatant was collected after centrifugation of the homogenate at 20,000×g for 15 min. The supernatant was subjected to ammonium sulfate fractionation (30 to 65% saturation). The precipitate was collected after centrifugation at 20,000×g for 15 min and dissolved in 3 ml of the purification buffer and then loaded as a whole on an Econo-Pac 10DG desalting column, pre-equilibrated with the same buffer. Fractions containing the enzyme were detected by the developed assay and pooled. The pooled enzyme (4.3 mls) was loaded on a 10 ml DEAF Sephacel (Pharmacia Biotech) column (1.5×7.5 cm) equilibrated with the same buffer. The column was washed with 30 ml of the purification buffer and the enzyme was eluted with 30 ml of 50 mM NaCl in the same buffer. Fractions containing high AS activity were pooled and precipitated by 65% ammonium sulfate saturation and isolated and desalted as above. Fractions containing the enzyme were pooled and stored at −80° C.
The standard assay for Agrobacterium tumefaciens AS was performed at 25° C. in an assay buffer containing 100 mM potassium phosphate, pH 7.0, 10 mM MgCl2, 1 mM dithiothreitol, 200 μM chorismate and 10 mM L-glutamine. The reaction was started by adding 30 μl of enzyme to the reaction mixture and mixing. The formation of anthranilate was directly monitored by the absorbance increase at 320 m for 3 minutes. Initial rate of reaction was calculated as unit absorbance increase per second based on the slope of the absorbance change over the reaction time. Km for chorismate (Km^Cho) was determined in the total volume of 1 ml assay buffer containing 100 mM potassium phosphate, pH 7.0, 10 mM MgCl2, 1 mM dithiothreitol with 10 mM L-glutamine and varying the concentration of chorismate between 2.5-100 μM chorismate. The Km for glutamine (Km^Gln) was determined in the total volume of 1 ml assay buffer containing 100 mM potassium phosphate, pH 7.0, 10 mM MgCl2, 1 mM dithiothreitol with 200 μM chorismate and varying the concentration of L-glutamine between 0.1-2 mM L-glutamine. IC50 for tryptophan (IC50^Trp) was determined with in the total volume of 1 ml assay buffer containing 100 mM potassium phosphate, pH 7.0, 10 mM MgCl2, 1 mM dithiothreitol, 10 mM L-glutamine, 200 μM chorismate and varying the concentration of L-tryptophan between 0.1-10 mM L-tryptophan. Kinetic parameters and IC50 of AS were calculated after fitting the data to a non-linear regression program (GraFit).

Molecule | amounts of tryptophan [1] | Km ([2]; pH 7.0, 200 μM chorismate, L-glutamine varied, read-out: Km^Gln) [µM] | Km ([2]; pH 7.0, 10 mM L-glutamine, chorismate varied, read-out: Km^Cho) [µM] | IC50 ([2]; inhibition by L-tryptophan, 10 mM L-glutamine, 200 μM chorismate) [µM] | kcat ([2]; purified enzyme from E. coli) [s⁻¹]
B1 | very high amounts of tryptophan | – | – | – | –
B2 | – | 100 | 9.2 | 5.5 | 0.46
B3 | very high amounts of tryptophan | – | – | – | –
